# From PMC8053092, “Structural basis for substrate recognition and cleavage by the dimerization-dependent CRISPR–Cas12f nuclease” (Nucleic Acids Research, 2020)
# Numbering of substitutions follows the chain as printed. Names may count otherwise.
# T1: Un1Cas12f1 D510A (Cas14a1; catalytically inactive) (UniProt A0A482D308 1-529, D510A)
# T1 sequence: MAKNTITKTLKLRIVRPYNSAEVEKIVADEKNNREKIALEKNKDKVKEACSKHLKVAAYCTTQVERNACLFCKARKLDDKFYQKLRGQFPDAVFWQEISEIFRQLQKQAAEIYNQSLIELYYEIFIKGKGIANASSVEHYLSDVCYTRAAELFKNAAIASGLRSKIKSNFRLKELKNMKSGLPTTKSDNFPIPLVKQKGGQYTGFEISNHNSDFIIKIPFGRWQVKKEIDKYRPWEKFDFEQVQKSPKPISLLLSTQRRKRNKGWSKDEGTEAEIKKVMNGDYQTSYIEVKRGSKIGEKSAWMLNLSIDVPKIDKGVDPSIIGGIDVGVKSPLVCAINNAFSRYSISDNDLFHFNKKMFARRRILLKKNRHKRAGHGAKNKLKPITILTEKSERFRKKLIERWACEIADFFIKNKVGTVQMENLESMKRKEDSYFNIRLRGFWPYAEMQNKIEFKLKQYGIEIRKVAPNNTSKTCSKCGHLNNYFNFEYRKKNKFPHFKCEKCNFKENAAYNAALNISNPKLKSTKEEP
# T2: Un1Cas12f1 (Cas14a1) (UniProt A0A482D308 1-529)
# T2 sequence: T1 sequence with A510D
# B1: Un1Cas12f1 D510A (inactive Cas12f mutant used for the Cas12f-sgRNA-target DNA ternary complex) (enzyme, UniProt A0A482D308 1-529, looked up)
# chain: T1 sequence
# notes: Cas12f (UnCas12f1 / Un1Cas12f1, also known as Cas14), full length, 529 amino acids, 61.5 kDa; plasmid Addgene #112500; catalytic D510 changed to alanine; three N-terminal and four C-terminal residues are not modelled; also called Cas12f D510A; Cas12f.2; source: E. coli BL21(DE3), purified (Ni-NTA, TEV cleavage, HiTrap SP, Superdex 200); not shown: 10xHis-MBP, N-terminal, cleaved
# B2: Cas12f (UnCas12f1), used for the Cas12f-sgRNA binary complex (enzyme, UniProt A0A482D308 1-529, looked up)
# chain: T1 sequence with A510D
# notes: Cas12f (UnCas12f1 / Un1Cas12f1, also known as Cas14), full length, 529 amino acids; plasmid Addgene #112500; The methods say only 'Cas12f proteins' for the binary complex, set against 'Cas12f D510A mutant proteins' for the ternary complex; also called Un1Cas12f1; wild-type Cas12f; source: E. coli BL21(DE3), purified (Ni-NTA, TEV cleavage, HiTrap SP, Superdex 200); not shown: 10xHis-MBP, …
# B3: sgRNA + 60-bp target dsDNA (TTTA PAM) (mixed)
# RNA: CUUCACUGAUAAAGUGGAGAACCGCUUCACCAAAAGCUGUCCCUUAGGGGAUUAGAACUUGAGUGAAGGUGGGCUGCUUGCAUCAGCCUAAUGUCGAGAAGUGCUUUCUUCGGAAAGUAACCCUCGAAACAAAUUCAUUUUUCCUCUCCAAUUCUGCACAAGAAAGUUGCAGAACCCGAAUAGACGAAUGAAGGAAUGCAACAGUUGACCCAACGUCGCCGG
# DNA 1: GCTGATGCATCTAGATTGTGCACGCCGGCGACGTTGGGTCAACTTAAATACGTAAGGTGC
# DNA 2: GCACCTTACGTATTTAAGTTGACCCAACGTCGCCGGCGTGCACAATCTAGATGCATCAGC
# B4: sgRNA (full length, 222 nt) (structured_RNA)
# RNA: B3 RNA
# Columns and labels:
# [1] = target: the molecule itself; test: cryo-EM structure; Cas12f D510A with sgRNA (222 nt) and 60-bp target dsDNA (TTTA PAM), ratio 1:1.2:1.3, 37°C, purified by SEC in 25 mM Tris-HCl pH 7.6, 150 mM NaCl, 2 mM DTT, 1 mM MgCl2; 3.1 Å
# [2] = target: the molecule itself; test: cryo-EM structure; Cas12f with sgRNA, ratio 1:1.2, 37°C for 30 min in 25 mM Tris-HCl pH 7.6, 150 mM NaCl, 2 mM DTT, 1 mM MgCl2; no target DNA; 3.9 Å
# [3] = target: T1, Un1Cas12f1 D510A (Cas14a1; …); test: cryo-EM (3.1 A); SEC; 1 mM Mg2+; Complex assembly in 25 mM Tris-HCl pH 7.6, 150 mM NaCl, 2 mM DTT, 1 mM MgCl2, 37 C 30 min; SEC in same buffer; settings: protein: recombinant; tags: N-terminal 10xHis-MBP removed by TEV; chain copies: 2; sgRNA; target and non-target DNA strands blunt 60 bp; guide:target heteroduplex 19-20 bp
# [4] = target: T2, Un1Cas12f1 (Cas14a1); test: cryo-EM (3.9 A); SEC; 1 mM Mg2+; no target DNA; Complex assembly in 25 mM Tris-HCl pH 7.6, 150 mM NaCl, 2 mM DTT, 1 mM MgCl2, 37 C 30 min; SEC in same buffer; settings: protein: recombinant; tags: N-terminal 10xHis-MBP removed by TEV; chain copies: 2; four stem-loops, two AR:R duplexes; 1 copy per Cas12f dimer
binder,measurement,setting,value
B1,stoichiometry N,[1],2
B2,binding result,[2],binds
B3,binding result,[3],binds
B4,binding result,[4],binds
